Results from FireProtDB (doi:10.1093/oxfordjournals.jbchem.a002919).

B1: 3-isopropylmalate dehydrogenase, P50455 (parent)
chain: MGFTVALIQGDGIGPEIVSKSKRILAKINELYSLPIEYIEVEAGDRALARYGEALPKDSLKIIDKADIILKGPVGESAADVVVKLRQIYDMYANIRPAKSIPGIDTKYGNVDILIVRENTEDLYKGFEHIVSDGVAVGMKIITRFASERIAKVGLNFALRRRKKVTCVHKANVMRITDGLFAEACRSVLKGKVEYSEMYVDAAAANLVRNPQMFDVIVTENVYGDILSDEASQIAGSLGIAPSANIGDKKALFEPVHGAAFDIAGKNIGNPTAFLLSVSMMYERMYELSNDDRYIKASRALENAIYLVYKERKALTPDVGGNATTDDLINEIYNKLG

Variants of: B1
Settings: Sulfurisphaera tokodaii (strain DSM 16993 / JCM 10545 / NBRC 100140 / 7); pH 7; Thermal; CD; Potassium phosphate 20 mM; structure 1WPW; whole UniProt chain shown

Variant	Tm [°C]	change of melting temperature, mutant - wild type (higher = more stable) [°C]
MGFTVALIQGDGIGPEIVSKSKRILAKINELYSLPIEYIEVEAGDRALARYGEALPKDSLKIIDKADIILKGPVGESAADVVVKLRQIYDMYANIRPAKSIPGIDTKYGNVDILIVRENTEDLYKGFEHIVSDGVAVGMKIITRFASERIAKVGLNFALRRRKKVTCVHKANVMRITDGLFAEACRSVLKGKVEYSEMYVDAAAANLVRNPQMFDVIVTENVYGDILSDEASQIAGSLGIAPSANIGDKKALFEPVHGSAPDIAGKNIGNPTAFLLSVSMMYERMYELSNDDRYIKASRALENAIYLVYKERKALTPDVGGNATTDDLINEIYNKLG [A259S F261P]	97.1	1.1
MGFTVALIQGDGIGPEIVSKSKRILAKINELYSLPIEYIEVEAGDRALARYGEALPKDSLKIIDKADIILKGPVGESAADVVVKLRQIYDMYANIRPAKSIPGIDTKYGNVDILIVRENTEDLYKGFEHIVSDGVAVGMKIITRFASERIAKVALNFALRRRKKVTCVHKANVMRITDGLFAEACRSVLKGKVEYSEMYVDAAAANLVRNPQMFDVIVTENVYGDILSDEASQIAGSLGIAPSANIGDKKALFEPVHGAAFDIAGKNIGNPTAFLLSVSMMYERMYELSNDDRYIKASRALENAIYLVYKERKALTPDVGGNATTDDLINEIYNKLG [G154A]	97.9	1.9
MGFTVALIQGDGIGPEIVSKSKRILAKINELYSLPIEYIEVEAGDRALARYGEALPKDSLKIIDKADIILKGPVGESAADVVVKLRQIYDMYANIRPAKSIPGIDTKYGNVDILIVRENTEDLYKGFEHIVSDGVAVGMKIITRFASERIAKVGLNFALRRRKKVTCVHKANVMRITDGLFAEACRSVLKGKVEYSEMYVDAAAANLVRNPQMFDVIVTENVYGDILSDEASQIAGSLGIAPSANIGDKKALFEPVHGAAFDIAGKNIGNPTAFLLSVSMMLERMYELSNDDRYIKASRALENAIYLVYKERKALTPDVGGNATTDDLINEIYNKLG [Y282L]	94.7	-1.3
MGFTVALIQGDGIGPEIVSKSKRILAKINELYSLPIEYIEVEAGDRALARYGEALPKDSLKIIDKADIILKGPVGESAADVVVKLRQIYDMYANIRPAKSIPGIDTKYGNVDILIVRENTEDLYKGFEHIVSDGVAVGMKIITRFASERIARVGLNFALRRRKKVTCVHKANVMRITDGLFAEACRSVLKGKVEYSEMYVDAAAANLVRNPQMFDVIVTENVYGDILSDEASQIAGSLGIAPSANIGDKKALFEPVHGAAFDIAGKNIGNPTAFLLSVSMMYERMYELSNDDRYIKASRALENAIYLVYKERKALTPDVGGNATTDDLINEIYNKLG [K152R]	95.6	-0.4
MGFTVALIQGDGIGPEIVSKSKRILAKINELYSLPIEYIEVEAGDRALARYGEALPKDSLKIIDKADIILKGPVGESAADVVVKLRQIYDMYANIRPAKSIPGIDTKYGNVDILIVRENTEDLYKGFEHIVSDGVAVGMKIITRFASERIARVALNFALRRRKKVTCVHKANVMRITDGLFAEACRSVLKGKVEYSEMYVDAAAANLVRNPQMFDVIVTENVYGDILSDEASQIAGSLGIAPSANIGDKKALFEPVHGAAFDIAGKNIGNPTAFLLSVSMMYERMYELSNDDRYIKASRALENAIYLVYKERKALTPDVGGNATTDDLINEIYNKLG [K152R G154A]	97.2	1.2
MGFTVALIQGDGIGPEIVSKSKRILAKINELYSLPIEYIEVEAGDRALARYGEALPKDSLKIIDKADIILKGPVGESAADVVVKLRQIYDLYANLRPAKSIPGIDTKYGNVDILIVRENTEDLYKGFEHIVSDGVAVGMKIITRFASERIARVALNFALRRRKKVTCVHKANVMRITDGLFAEACRSVLKGKVEYSEMYVDAAAANLVRNPQMFDVIVTENVYGDILSDEASQIAGSLGIAPSANIGDKKALFEPVHGSAPDIAGKNIGNPTAFLLSVSMMLERMYELSNDDRYIKASRALENAIYLVYKERKALTPDVGGNATTDDLINEIYNKLG [M91L I95L K152R G154A A259S F261P Y282L]	96.4	0.4
MGFTVALIQGDGIGPEIVSKSKRILAKINELYSLPIEYIEVEAGDRALARYGEALPKDSLKIIDKADIILKGPVGESAADVVVKLRQIYDLYANLRPAKSIPGIDTKYGNVDILIVRENTEDLYKGFEHIVSDGVAVGMKIITRFASERIAKVGLNFALRRRKKVTCVHKANVMRITDGLFAEACRSVLKGKVEYSEMYVDAAAANLVRNPQMFDVIVTENVYGDILSDEASQIAGSLGIAPSANIGDKKALFEPVHGAAFDIAGKNIGNPTAFLLSVSMMYERMYELSNDDRYIKASRALENAIYLVYKERKALTPDVGGNATTDDLINEIYNKLG [M91L I95L]	99.2	3.2
